In the Human Domainome abundance scans (Beltran et al. 2025):
± gives the uncertainty stated by the source.

B1: Transcriptional repressor p66-beta, residues 415 to 455; numbered along this chain, Q8WXI9 (parent)
chain: VEPFVCAQCRTDFTPHWKQEKNGKILCEQCMTSNQKKALKA
B2: 1-phosphatidylinositol 4,5-bisphosphate phosphodiesterase gamma-2, residues 772 to 827; numbered along this chain, P16885 (parent)
chain: RTVKALYDYKAKRSDELSFCRGALIHNVSKEPGGWWKGDYGTRIQQYFPSNYVEDI

Variants of: B1
Assay: abundance fitness (aPCA) (normalised: wild type 0, dead -1); higher = more abundant; growth selection in yeast, the domain comes from the species named
Conditions: Homo sapiens

Variant | abundance fitness
K40M | -0.066 ± 0.18
K40G | 0.06 ± 0.064
K40T | 0.071 ± 0.08
K40S | -0.073 ± 0.11
K40Q | -0.218 ± 0.23
K40V | -0.121 ± 0.069
K40A | -0.025 ± 0.071
K40R | 0.285 ± 0.065
K40W | -0.393 ± 0.11
K40N | 0.079 ± 0.19
K40L | -0.467 ± 0.12
K40P | 0.229 ± 0.24
K40C | -0.144 ± 0.15
K40E | 0.084 ± 0.089
Q35K | -0.136 ± 0.26
Q35T | 0.018 ± 0.24
Q35E | 0.025 ± 0.08
Q35P | -0.223 ± 0.12
Q35R | -0.197 ± 0.067
Q35V | -0.339 ± 0.086
Q35I | -0.378 ± 0.16
Q35G | -0.152 ± 0.058
Q35M | -0.157 ± 0.18
Q35A | -0.117 ± 0.063
Q35D | -0.103 ± 0.1
Q35C | -0.218 ± 0.14
Q35Y | 0.116 ± 0.43
Q35L | -0.365 ± 0.1
Q35S | -0.087 ± 0.19

Variants of: B2
Assay: as above
Conditions: Homo sapiens

Variant | abundance fitness
RTVKGLYDYKAKRSDELSFCRGALIHNVSKEPGGWWKGDYGTRIQQYFPSNYVEDI [A5G] | -0.868 ± 0.13
RTVKNLYDYKAKRSDELSFCRGALIHNVSKEPGGWWKGDYGTRIQQYFPSNYVEDI [A5N] | -0.964 ± 0.099
RTVKQLYDYKAKRSDELSFCRGALIHNVSKEPGGWWKGDYGTRIQQYFPSNYVEDI [A5Q] | -0.865 ± 0.15
RTVKVLYDYKAKRSDELSFCRGALIHNVSKEPGGWWKGDYGTRIQQYFPSNYVEDI [A5V] | -0.965 ± 0.12
RTVKHLYDYKAKRSDELSFCRGALIHNVSKEPGGWWKGDYGTRIQQYFPSNYVEDI [A5H] | -0.976 ± 0.084
RTVKPLYDYKAKRSDELSFCRGALIHNVSKEPGGWWKGDYGTRIQQYFPSNYVEDI [A5P] | -0.95 ± 0.07
RTVKELYDYKAKRSDELSFCRGALIHNVSKEPGGWWKGDYGTRIQQYFPSNYVEDI [A5E] | -0.908 ± 0.12
RTVKRLYDYKAKRSDELSFCRGALIHNVSKEPGGWWKGDYGTRIQQYFPSNYVEDI [A5R] | -0.896 ± 0.089
RTVKILYDYKAKRSDELSFCRGALIHNVSKEPGGWWKGDYGTRIQQYFPSNYVEDI [A5I] | -0.903 ± 0.072
RTVKSLYDYKAKRSDELSFCRGALIHNVSKEPGGWWKGDYGTRIQQYFPSNYVEDI [A5S] | -0.503 ± 0.042
RTVKKLYDYKAKRSDELSFCRGALIHNVSKEPGGWWKGDYGTRIQQYFPSNYVEDI [A5K] | -0.998 ± 0.13
RTVKLLYDYKAKRSDELSFCRGALIHNVSKEPGGWWKGDYGTRIQQYFPSNYVEDI [A5L] | -0.999 ± 0.066
RTVKMLYDYKAKRSDELSFCRGALIHNVSKEPGGWWKGDYGTRIQQYFPSNYVEDI [A5M] | -0.942 ± 0.082
RTVKFLYDYKAKRSDELSFCRGALIHNVSKEPGGWWKGDYGTRIQQYFPSNYVEDI [A5F] | -0.895 ± 0.07
RTVKWLYDYKAKRSDELSFCRGALIHNVSKEPGGWWKGDYGTRIQQYFPSNYVEDI [A5W] | -0.955 ± 0.19
RTVVALYDYKAKRSDELSFCRGALIHNVSKEPGGWWKGDYGTRIQQYFPSNYVEDI [K4V] | 0.055 ± 0.07
RTVGALYDYKAKRSDELSFCRGALIHNVSKEPGGWWKGDYGTRIQQYFPSNYVEDI [K4G] | -0.782 ± 0.11
RTVYALYDYKAKRSDELSFCRGALIHNVSKEPGGWWKGDYGTRIQQYFPSNYVEDI [K4Y] | 0.019 ± 0.15
RTVQALYDYKAKRSDELSFCRGALIHNVSKEPGGWWKGDYGTRIQQYFPSNYVEDI [K4Q] | -0.148 ± 0.15
RTVIALYDYKAKRSDELSFCRGALIHNVSKEPGGWWKGDYGTRIQQYFPSNYVEDI [K4I] | 0.049 ± 0.14
RTVFALYDYKAKRSDELSFCRGALIHNVSKEPGGWWKGDYGTRIQQYFPSNYVEDI [K4F] | -0.393 ± 0.16

Variant | abundance fitness
RTVAALYDYKAKRSDELSFCRGALIHNVSKEPGGWWKGDYGTRIQQYFPSNYVEDI [K4A] | -0.259 ± 0.084
RTVCALYDYKAKRSDELSFCRGALIHNVSKEPGGWWKGDYGTRIQQYFPSNYVEDI [K4C] | -0.068 ± 0.11
RTVMALYDYKAKRSDELSFCRGALIHNVSKEPGGWWKGDYGTRIQQYFPSNYVEDI [K4M] | -0.127 ± 0.11
RTVDALYDYKAKRSDELSFCRGALIHNVSKEPGGWWKGDYGTRIQQYFPSNYVEDI [K4D] | -0.809 ± 0.47
RTVEALYDYKAKRSDELSFCRGALIHNVSKEPGGWWKGDYGTRIQQYFPSNYVEDI [K4E] | -0.216 ± 0.06
RTVWALYDYKAKRSDELSFCRGALIHNVSKEPGGWWKGDYGTRIQQYFPSNYVEDI [K4W] | -0.375 ± 0.16
RTVRALYDYKAKRSDELSFCRGALIHNVSKEPGGWWKGDYGTRIQQYFPSNYVEDI [K4R] | -0.205 ± 0.053
RTVSALYDYKAKRSDELSFCRGALIHNVSKEPGGWWKGDYGTRIQQYFPSNYVEDI [K4S] | -0.514 ± 0.13
RTVTALYDYKAKRSDELSFCRGALIHNVSKEPGGWWKGDYGTRIQQYFPSNYVEDI [K4T] | -0.288 ± 0.13
MTVKALYDYKAKRSDELSFCRGALIHNVSKEPGGWWKGDYGTRIQQYFPSNYVEDI [R1M] | -0.07 ± 0.25
ITVKALYDYKAKRSDELSFCRGALIHNVSKEPGGWWKGDYGTRIQQYFPSNYVEDI [R1I] | -0.141 ± 0.32
TTVKALYDYKAKRSDELSFCRGALIHNVSKEPGGWWKGDYGTRIQQYFPSNYVEDI [R1T] | 0.417 ± 0.11
ETVKALYDYKAKRSDELSFCRGALIHNVSKEPGGWWKGDYGTRIQQYFPSNYVEDI [R1E] | -0.056 ± 0.14
YTVKALYDYKAKRSDELSFCRGALIHNVSKEPGGWWKGDYGTRIQQYFPSNYVEDI [R1Y] | 0.164 ± 0.061
WTVKALYDYKAKRSDELSFCRGALIHNVSKEPGGWWKGDYGTRIQQYFPSNYVEDI [R1W] | 0.23 ± 0.16
CTVKALYDYKAKRSDELSFCRGALIHNVSKEPGGWWKGDYGTRIQQYFPSNYVEDI [R1C] | -0.495 ± 0.38
GTVKALYDYKAKRSDELSFCRGALIHNVSKEPGGWWKGDYGTRIQQYFPSNYVEDI [R1G] | -0.328 ± 0.12
VTVKALYDYKAKRSDELSFCRGALIHNVSKEPGGWWKGDYGTRIQQYFPSNYVEDI [R1V] | 0.257 ± 0.36
RTMKALYDYKAKRSDELSFCRGALIHNVSKEPGGWWKGDYGTRIQQYFPSNYVEDI [V3M] | -0.017 ± 0.1
RTCKALYDYKAKRSDELSFCRGALIHNVSKEPGGWWKGDYGTRIQQYFPSNYVEDI [V3C] | -0.267 ± 0.38
RTIKALYDYKAKRSDELSFCRGALIHNVSKEPGGWWKGDYGTRIQQYFPSNYVEDI [V3I] | -0.689 ± 0.26

Variant | abundance fitness
RTVKADYDYKAKRSDELSFCRGALIHNVSKEPGGWWKGDYGTRIQQYFPSNYVEDI [L6D] | -0.577 ± 0.22
RTVKACYDYKAKRSDELSFCRGALIHNVSKEPGGWWKGDYGTRIQQYFPSNYVEDI [L6C] | -0.406 ± 0.16
RTVKAAYDYKAKRSDELSFCRGALIHNVSKEPGGWWKGDYGTRIQQYFPSNYVEDI [L6A] | -0.195 ± 0.055
RQVKALYDYKAKRSDELSFCRGALIHNVSKEPGGWWKGDYGTRIQQYFPSNYVEDI [T2Q] | -0.094 ± 0.11
RFVKALYDYKAKRSDELSFCRGALIHNVSKEPGGWWKGDYGTRIQQYFPSNYVEDI [T2F] | -0.702 ± 0.41
RKVKALYDYKAKRSDELSFCRGALIHNVSKEPGGWWKGDYGTRIQQYFPSNYVEDI [T2K] | -0.207 ± 0.068
RIVKALYDYKAKRSDELSFCRGALIHNVSKEPGGWWKGDYGTRIQQYFPSNYVEDI [T2I] | -0.111 ± 0.16
RVVKALYDYKAKRSDELSFCRGALIHNVSKEPGGWWKGDYGTRIQQYFPSNYVEDI [T2V] | 0.037 ± 0.06
RAVKALYDYKAKRSDELSFCRGALIHNVSKEPGGWWKGDYGTRIQQYFPSNYVEDI [T2A] | -0.287 ± 0.11
RGVKALYDYKAKRSDELSFCRGALIHNVSKEPGGWWKGDYGTRIQQYFPSNYVEDI [T2G] | -0.578 ± 0.1
RNVKALYDYKAKRSDELSFCRGALIHNVSKEPGGWWKGDYGTRIQQYFPSNYVEDI [T2N] | -0.587 ± 0.15
RCVKALYDYKAKRSDELSFCRGALIHNVSKEPGGWWKGDYGTRIQQYFPSNYVEDI [T2C] | -0.344 ± 0.2
RSVKALYDYKAKRSDELSFCRGALIHNVSKEPGGWWKGDYGTRIQQYFPSNYVEDI [T2S] | -0.089 ± 0.085
RWVKALYDYKAKRSDELSFCRGALIHNVSKEPGGWWKGDYGTRIQQYFPSNYVEDI [T2W] | -0.883 ± 0.29
RYVKALYDYKAKRSDELSFCRGALIHNVSKEPGGWWKGDYGTRIQQYFPSNYVEDI [T2Y] | -0.177 ± 0.4
RMVKALYDYKAKRSDELSFCRGALIHNVSKEPGGWWKGDYGTRIQQYFPSNYVEDI [T2M] | -0.241 ± 0.15
RLVKALYDYKAKRSDELSFCRGALIHNVSKEPGGWWKGDYGTRIQQYFPSNYVEDI [T2L] | -0.315 ± 0.1
REVKALYDYKAKRSDELSFCRGALIHNVSKEPGGWWKGDYGTRIQQYFPSNYVEDI [T2E] | -0.279 ± 0.28
RHVKALYDYKAKRSDELSFCRGALIHNVSKEPGGWWKGDYGTRIQQYFPSNYVEDI [T2H] | -0.603 ± 0.12
